# Assay results reported in publication PMC3910272, “Assay Platform for Clinically Relevant Metallo-β-lactamases” (Journal of Medicinal Chemistry, 2013).
# Marks after values point to notes of the source that are not given here.
# Key:
# NDM-1 [1] = target: T1, NDM-1 (Klebsiella pneumoniae, UniProt C7C422); test: biochemical
# VIM-2 = VIM-2 (Escherichia coli, UniProt Q5U7L7); test: biochemical
# Bc II = target: T2, Bc II (Bacillus cereus, UniProt P04190); test: Bc II inhibition IC50, FC4 as reporter substrate; type: biochemical
# T2 construct: made in house; host or cells: E. coli BL21(DE3) pLysS
# T2 sequence (P04190 31-257): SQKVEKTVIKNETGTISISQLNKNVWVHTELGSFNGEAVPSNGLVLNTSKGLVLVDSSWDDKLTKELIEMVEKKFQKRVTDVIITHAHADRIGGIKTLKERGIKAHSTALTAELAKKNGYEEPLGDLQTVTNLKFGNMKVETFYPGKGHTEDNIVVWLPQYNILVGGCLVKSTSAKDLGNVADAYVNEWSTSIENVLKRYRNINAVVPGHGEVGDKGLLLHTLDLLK
# Source text: (§1) Taking into account the aforementioned requirements,
# (§2) absorbance from Greiner Bio-One were used.
# (§3) Determination of the steady state kinetic
# (§4) concentration using the same software.
# (§5) Additional tests verified
# IMP-1 = IMP-1 (Serratia marcescens, UniProt P52699); test: biochemical
# Sequence of IMP-1 (P52699 19-246 limits assumed): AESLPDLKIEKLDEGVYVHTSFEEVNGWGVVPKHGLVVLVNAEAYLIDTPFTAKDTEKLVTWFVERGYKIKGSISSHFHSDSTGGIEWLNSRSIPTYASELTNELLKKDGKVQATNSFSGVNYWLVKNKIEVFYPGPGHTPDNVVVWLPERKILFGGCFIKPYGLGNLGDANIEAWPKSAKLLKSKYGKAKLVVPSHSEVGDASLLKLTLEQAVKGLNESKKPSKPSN
# SPM-1 [2] = target: T3, SPM-1 (Pseudomonas aeruginosa, UniProt Q8G9Q0); test: SPM-1 inhibition (residual activity, IC50), FC4 as reporter substrate; type: biochemical
# T3 sequence (Q8G9Q0 entry or part of it): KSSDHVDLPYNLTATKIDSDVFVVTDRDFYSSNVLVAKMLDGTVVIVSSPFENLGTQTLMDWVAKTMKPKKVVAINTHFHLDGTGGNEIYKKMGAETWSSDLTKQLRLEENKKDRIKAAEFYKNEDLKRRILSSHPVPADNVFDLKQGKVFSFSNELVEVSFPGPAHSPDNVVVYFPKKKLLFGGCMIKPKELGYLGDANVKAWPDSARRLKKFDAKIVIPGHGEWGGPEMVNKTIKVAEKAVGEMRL
# Source text: To achieve clinical utility, MBL inhibitors may need to act on more than one MBL subfamily. This is potentially challenging because of the generally low sequence similarity between MBLs of different subfamilies (B1, B2, B3). […] This set of compounds was selected as a result of their previously reported inhibition of metal-binding oxygenases.[51] […] In contrast, the compounds derivatized with a Trp, Leu, Asp, or Glu residue inhibited SPM-1, with the tryptophan-functionalized chloroisoquinolinols (S)-7d and (R)-7d giving the most promising results (3% and 8% residual activity (RA) at 200 μM, respectively).
# as §1, §2, §3, §4, §5
# [3] = Autohydrolysis and storage stability of fluorogenic substrates; type: physicochemical; conditions: for period of use when stored as solids: solids at −20 °C; for time solutions could be used: solutions stored on ice
# SPM-1 [4] = target: T3, SPM-1; test: biochemical
# Source text: as §1, §2, §3, §4
# NDM-1 [5] = target: T1, NDM-1; type: biochemical; design: His-tag (3C protease cleavable) (N, cleaved yes); made in house; host or cells: E. coli BL21(DE3) pLysS; conditions: substrate hydrolysis
# Source text: as §1, §2, §3, §4
# [6] = system: C[C@@H](O)[C@H]1C(=O)N2C(C(=O)O)=C(SCCN=CN)C[C@H]12; test: purified protein, by the assay type; conditions: substrate hydrolysis
# [7] = system: O=C(Cc1cccs1)N[C@@H]1C(=O)N2C(C(=O)O)=C(/C=C/c3ccc([N+](=O)[O-])cc3[N+](=O)[O-])CS[C@H]12; test: purified protein, by the assay type; conditions: substrate hydrolysis
# [8] = system: O=C(Cc1cccs1)N[C@@H]1C(=O)N2C(C(=O)O)=C(CSc3ccc([N+](=O)[O-])c(C(=O)O)c3)CS[C@H]12; test: purified protein, by the assay type; conditions: substrate hydrolysis
# [9] = system: O=C(Cc1ccccc1)N[C@@H]1C(=O)N2C(C(=O)O)=C(COc3ccc4ccc(=O)oc4c3)C[S+]([O-])[C@H]12; test: purified protein, by the assay type; conditions: substrate hydrolysis
# [10] = system: [H][C@@]12[C@H](NC(=O)Cc3ccccc3)C(=O)N1C(C(=O)O)=C(COc1ccc3ccc(=O)oc3c1)CS2(=O)=O; test: purified protein, by the assay type; conditions: substrate hydrolysis
# [11] = system: O=C(Cc1ccccc1)N[C@@H]1C(=O)N2C(C(=O)O)=C(COc3ccc4ccc(=O)oc4c3)CS[C@H]12; test: purified protein, by the assay type; conditions: other: NDM-1; substrate hydrolysis
# T1 sequence (C7C422 29-270 limits assumed): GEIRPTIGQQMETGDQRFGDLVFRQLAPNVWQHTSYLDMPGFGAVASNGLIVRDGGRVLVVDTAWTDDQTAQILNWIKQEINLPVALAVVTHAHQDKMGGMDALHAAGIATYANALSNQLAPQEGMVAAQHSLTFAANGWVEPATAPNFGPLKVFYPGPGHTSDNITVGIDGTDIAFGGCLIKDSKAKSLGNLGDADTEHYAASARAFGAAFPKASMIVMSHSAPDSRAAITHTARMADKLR
compound,measurement,setting,value
O=C(N[C@H](Cc1c[nH]c2ccccc12)C(=O)O)c1nc(Cl)c2ccccc2c1O [(R)-7d],IC50,NDM-1 [1],47.1 ± 1.1 µM
same,IC50,VIM-2,55.3 ± 1.3 µM
same,IC50,Bc II,132.4 ± 1.3 µM
same,IC50,IMP-1,74.1 ± 1.6 µM
same,IC50,SPM-1 [2],46.6 ± 1.1 µM
O=C(N[C@@H](Cc1c[nH]c2ccccc12)C(=O)O)c1nc(Cl)c2ccccc2c1O [(S)-7d],IC50,NDM-1 [1],61.4 ± 1.3 µM
same,IC50,VIM-2,54.7 ± 1.4 µM
same,IC50,Bc II,61.3 ± 1.3 µM
same,IC50,IMP-1,75.6 ± 1.5 µM
same,IC50,SPM-1 [2],23.2 ± 1.1 µM
O=C(Cc1ccccc1)N[C@@H]1C(=O)N2C(C(=O)O)=C(COc3ccc4ccc(=O)oc4c3)CS[C@H]12 [FC3],autohydrolysis in buffer,"[3]; buffer, room temperature, after 3 h",substantial hydrolysis
"O=C(Cc1ccccc1)N[C@@H]1C(=O)N2C(C(=O)O)=C(COc3ccc4ccc(=O)oc4c3)C[S+]([O-])[C@H]12 (stereo partly drawn) [FC4, (6R,7R)-8-Oxo-3-(((2-oxo-2H-chromen-7-yl)oxy)methyl)-7-(2-phenylacetamido)-5-thia-1-azabicyclo[4.2.0]oct-2-ene-2-carboxylic Acid 5-Oxide]",time stable in buffer (autohydrolysis study),"[3]; buffer, room temperature",at least 8 h
same,period of use when stored as solids,[3],months
same,time solutions could be used,[3],1 to 2 days
"O=C(Cc1ccccc1)N[C@@H]1C(=O)N2C(C(=O)O)=C(COc3ccc4ccc(=O)oc4c3)CS(=O)(=O)[C@H]12 [FC5, (6R,7R)-8-Oxo-3-(((2-oxo-2H-chromen-7-yl)oxy)methyl)-7-(2-phenylacetamido)-5-thia-1-azabicyclo[4.2.0]oct-2-ene-2-carboxylic Acid 5,5-Dioxide]",time stable in buffer (autohydrolysis study),"[3]; buffer, room temperature",at least 8 h
same,period of use when stored as solids,[3],months
same,time solutions could be used,[3],1 to 2 days
O=C(Cc1cccs1)N[C@@H]1C(=O)N2C(C(=O)O)=C(/C=C/c3ccc([N+](=O)[O-])cc3[N+](=O)[O-])CS[C@H]12 [nitrocefin],Ki,"SPM-1 [4]; apparent Ki value for substrate/product inhibition, table footnote",36.6 µM
same,Ki,"SPM-1 [4]; concentration at which SPM-1 is inhibited by nitrocefin/nitrocefin-derived species, substrate or product inhibition",36 µM
same,Km,NDM-1 [5],8.8 ± 1.1 µM
same,kcat,NDM-1 [5],25.3 s^–1
"O=C(O)c1ccc(O)cc1O [β-Resorcylic acid, reference compound]",RA 1 mM (residual activity on SPM-1),"SPM-1 [2]; compound at 1 mM, FC4 reporter substrate, 10 min preincubation",76%
BcII (Bacillus cereus),kcat/Km,[6]; other: BcII,400000 M⁻¹ s⁻¹
same,Km,[7]; other: BcII,8.1 ± 1.0 µM
same,kcat,[7]; other: BcII,14.9 s⁻¹
same,kcat/Km,[7]; other: BcII,1.8e+06 M⁻¹ s⁻¹
same,kcat,[8]; other: BcII,8.9 s⁻¹
same,kcat/Km,[8]; other: BcII,60000 M⁻¹ s⁻¹
same,kcat/Km,[9]; other: BcII,700000 M⁻¹ s⁻¹
same,kcat/Km,[10]; other: BcII,3.7e+06 M⁻¹ s⁻¹
IMP-1 (Serratia marcescens),kcat,[6]; other: IMP-1,1200 s⁻¹
same,kcat/Km,[6]; other: IMP-1,2.81e+07 M⁻¹ s⁻¹
same,Km,[7]; other: IMP-1,55.7 ± 4.8 µM
same,kcat,[7]; other: IMP-1,2790 s⁻¹
same,kcat/Km,[7]; other: IMP-1,5.02e+07 M⁻¹ s⁻¹
same,kcat/Km,[8]; other: IMP-1,2.53e+07 M⁻¹ s⁻¹
same,kcat/Km,[9]; other: IMP-1,8.07e+08 M⁻¹ s⁻¹
same,kcat/Km,[10]; other: IMP-1,5.17e+08 M⁻¹ s⁻¹
NDM-1 (Klebsiella pneumoniae),kcat/Km,[6]; other: NDM-1,3.6e+06 M⁻¹ s⁻¹
same,kcat/Km,[11],5.8e+06 M⁻¹ s⁻¹
same,Km,[9]; other: NDM-1,4.0 ± 0.8 µM
same,kcat/Km,[9]; other: NDM-1,3.2e+07 M⁻¹ s⁻¹
same,Km,[10]; other: NDM-1,2.4 ± 0.2 µM
same,kcat/Km,[10]; other: NDM-1,1.24e+08 M⁻¹ s⁻¹
SPM-1 (Pseudomonas aeruginosa),kcat/Km,[6]; other: SPM-1,100000 M⁻¹ s⁻¹
same,Km,[7]; other: SPM-1,16.0 ± 3.7 ^c μM
same,kcat,[7]; other: SPM-1,0.7 s⁻¹
same,kcat/Km,[7]; other: SPM-1,40000 M⁻¹ s⁻¹
same,kcat,[8]; other: SPM-1,6.1 s⁻¹
same,kcat/Km,[8]; other: SPM-1,200000 M⁻¹ s⁻¹
same,Km,[9]; other: SPM-1,2.5 ± 0.2 µM
same,kcat,[9]; other: SPM-1,8.7 s⁻¹
same,kcat/Km,[9]; other: SPM-1,3.5e+06 M⁻¹ s⁻¹
same,Km,[10]; other: SPM-1,2.7 ± 0.2 µM
same,kcat/Km,[10]; other: SPM-1,1.03e+07 M⁻¹ s⁻¹
VIM-2 (Escherichia coli),kcat/Km,[6]; other: VIM-2,1.1e+06 M⁻¹ s⁻¹
same,Km,[7]; other: VIM-2,7.2 ± 0.6 µM
same,kcat,[7]; other: VIM-2,226 s⁻¹
same,kcat/Km,[7]; other: VIM-2,3.12e+07 M⁻¹ s⁻¹
same,kcat/Km,[8]; other: VIM-2,1.8e+06 M⁻¹ s⁻¹
same,Km,[9]; other: VIM-2,6.3 ± 0.4 µM
same,kcat/Km,[9]; other: VIM-2,2e+07 M⁻¹ s⁻¹
same,kcat/Km,[10]; other: VIM-2,1.91e+07 M⁻¹ s⁻¹
